Common to all, as to assay: cell-based or functional assay
Assay [1] concerns the target HIV-1 Env of isolate MGRM-AG-006 (HIV-1).
Assay [2] concerns the target HIV-1 Env of isolate MGRM-AG-011 (HIV-1).
Assay [3] deals with HIV-1 Env of isolate MGRM-AG-009 (HIV-1).
Assay [4] deals with aMLV envelope (negative control pseudovirus).
Assay [5] deals with HIV-1 Env of isolate MGRM-AE-008 (HIV-1).
Assay [6] concerns the target HIV-1 Env of isolate MGRM-AG-003 (HIV-1).
For assay [7], the target named is HIV-1 Env of isolate MGRM-AG-013 (HIV-1).
The target of assay [8] is HIV-1 Env of isolate MGRM-AE-007 (HIV-1).
For assay [9], the target named is HIV-1 Env of isolate MGRM-AG-008 (HIV-1).
Assay [10] addresses HIV-1 Env of isolate MGRM-AG-001 (HIV-1).
Assay [11] addresses HIV-1 Env of isolate MGRM-AG-002 (HIV-1).
Assay [12] has as its target HIV-1 Env of isolate MGRM-AG-012 (HIV-1).
For assay [13], the target named is HIV-1 Env of isolate MGRM-AG-005 (HIV-1).
Assay [14] has as its target HIV-1 Env of isolate MGRM-Chronic-B-012 (HIV-1).
The target of assay [15] is HIV-1 Env of isolate MGRM-Chronic-B-024 (HIV-1).
Assay [16] has as its target HIV-1 Env of isolate JRFL (HIV-1).
Assay [17] addresses HIV-1 Env of isolate MGRM-Chronic-B-017 (HIV-1).
Assay [18] deals with HIV-1 Env of isolate MGRM-Chronic-B-018 (HIV-1).
The target in assay [19] is HIV-1 Env of isolate MGRM-Chronic-B-023 (HIV-1).
For assay [20], the target named is HIV-1 Env of isolate MGRM-F1-021 (HIV-1).
Assay [21] deals with HIV-1 Env of isolate MGRM-Chronic-B-020 (HIV-1).
Assay [22] addresses HIV-1 Env of isolate MGRM-Chronic-B-011 (HIV-1).
The target of assay [23] is HIV-1 Env of isolate MGRM-Chronic-B-010 (HIV-1).

For five substances, IC50, neutralization IC50 and IC50, pseudovirus neutralization results are on record in US20200024330A1.

In general, IC50 refers to the midpoint of a concentration-inhibition curve. A low value points to inhibition by little substance. For the substance PGT-141 (4964_G22; 4993_K13) (antibody), the IC50 in assay [1] was above 50 µg/mL; in assay [2] it was 0.118 µg/mL; in assay [3], above 50 µg/mL; in [5], 0.101 µg/mL; in [6], above 50 µg/mL; in [7], above 50 µg/mL. In addition, the half-maximal inhibitory concentration (IC50) in [8] is 33.1 µg/mL; in [9], 19.2 µg/mL; in assay [10], 18 µg/mL; in assay [11] it was 0.049 µg/mL; in [12], above 50 µg/mL; in assay [13], 0.497 µg/mL. The substance also yielded a neutralization IC50 in assay [4] above 50 µg/mL.
As to PGT-142 (4995_E20) (antibody), the IC50 in [1] was above 50 µg/mL; in assay [2] it was 0.081 µg/mL; in assay [3] it was above 50 µg/mL; in assay [5], 0.08 µg/mL; in assay [6], above 50 µg/mL; in assay [7], 21.7 µg/mL. Besides, the half-maximal inhibitory concentration (IC50) in [8] was 6.7 µg/mL; in assay [9] it was 12.1 µg/mL; in assay [10] it was 12.4 µg/mL; in assay [11], 0.044 µg/mL; in assay [12] it was above 50 µg/mL; in assay [13], 0.383 µg/mL. The neutralization IC50 in assay [4] was above 50 µg/mL.
Take PGT-143 (4980_N08) (antibody): the IC50 was above 50 µg/mL in assay [1]; 0.156 µg/mL in assay [2]; above 50 µg/mL in [3]; 0.135 µg/mL in [5]; above 50 µg/mL in assay [6]; above 50 µg/mL in assay [7]. The IC50 in [8] is 13.6 µg/mL; in [9] it was 34 µg/mL; in assay [10] it was 18.9 µg/mL; in [11], 0.076 µg/mL; in [12] it was above 50 µg/mL; in assay [13], 1.11 µg/mL. Besides, the neutralization IC50 in assay [4] was above 50 µg/mL.
Regarding PGT-144 (4970_K22) (antibody), the 50% inhibitory concentration (IC50) in assay [1] is above 50 µg/mL; in assay [2], 44.6 µg/mL; in assay [3] it was above 50 µg/mL; in assay [5], 3.55 µg/mL; in assay [6], above 50 µg/mL; in assay [7], above 40 µg/mL. In addition, the half-maximal inhibitory concentration (IC50) in assay [8] is above 50 µg/mL; in [9], above 50 µg/mL; in [10] it was above 50 µg/mL; in assay [11], 7.78 µg/mL; in assay [12], above 50 µg/mL; in assay [13], above 50 µg/mL. The neutralization IC50 in [4] is above 50 µg/mL.
Take VRC01 (antibody): the concentration for half-maximal inhibition (IC50) in assay [1] was 0.344 µg/mL; in [2] it was 0.084 µg/mL; in [3], above 50 µg/mL; in assay [16], 0.034 µg/mL; in assay [5], 1.72 µg/mL; in [6] it was 0.043 µg/mL. For the same substance, the IC50 was 0.197 µg/mL in assay [7]; 0.835 µg/mL in [8]; 0.124 µg/mL in [9]; 0.228 µg/mL in assay [10]; 0.95 µg/mL in [11]; 0.031 µg/mL in assay [12]. For the same substance, the half-maximal inhibitory concentration (IC50) in assay [13] came to 0.091 µg/mL. In addition, the neutralization IC50 was 1.03 µg/mL in [14]; above 50 µg/mL in assay [4]; 0.377 µg/mL in [15]; 0.141 µg/mL in assay [17]; 0.328 µg/mL in assay [18]; 0.275 µg/mL in assay [19]. Further, the neutralization IC50 in [21] worked out at 0.424 µg/mL; in assay [22] it was 0.587 µg/mL; in assay [23], 0.156 µg/mL. In addition, the IC50, pseudovirus neutralization in assay [20] came out at 0.039 µg/mL.
